{
  "source": "the nanobody polyreactivity screen of Harvey et al. (2022)",
  "data": [
    {"assay": "yeast display, Sf9 membrane polyspecificity reagent, FACS + sequencing; frameworks hold sequencing errors", "how_it_was_run": "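Synthetic nanobody libraries on Saccharomyces cerevisiae BJ5465 were galactose-induced for 36–48 hours, stained 1 hour at 4 °C with 10% biotinylated, detergent-solubilized Sf9 membrane reagent and enriched on streptavidin microbeads. FACS then separated cells into low and high (top ~1%) gates by anti-HA (expression) and streptavidin (reagent binding) fluorescence. Genes were colony-PCR amplified, MiSeq 2 × 250 sequenced and CDR-length filtered. A clone's polyreactivity label is that of its gate of origin.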", "values": [
      {"sequence": "QVQLVESGGGLVQAAGSLRLSCAASGLTFPFYTMGWYIQAPGKARELVAAISRRGGSTYYADSVKGRFTISRDNAKNTVYLQMNSLKPEDTAVYYCAADKYSWYDYWGQGTQVTVSS", "polyreactivity (PSR sort gate)": "low polyreactivity"},
      {"sequence": "QVQLVESGGGLVQAAGSLRLSCAASGRIFFAYAMGWNRQEPGKERELVASITSGGSTNYADSVKGRFTISRDNAKNTVYLQMNSLKPEDTAVYYCAARSRFSNLYVRFYYWGQGTQVTVSS", "polyreactivity (PSR sort gate)": "high polyreactivity"},
      {"sequence": "QVQLVESGGGLVQAAGSLRLSCAASGRIFYSYAMGWYRQAPGKERELVAASSFSVGSTYYADSVKGRFTISRDNAKNTVYLQMNSLKPEDTAVYYCAASLGFPGYEYWGQGTQVTVSS", "polyreactivity (PSR sort gate)": "low polyreactivity"},
      {"sequence": "QVQLVESGGGLVQAAGSLRLSCAASGRTFFPYAMGWYRQAPGKEREFVAAITKTDDSTYYADSVKGRFTISRDNAKNTVYLQMNSLKPEDSAVYYCNAGDTQIRFYYWGQVTQVTVSS", "polyreactivity (PSR sort gate)": "low polyreactivity"},
      {"sequence": "QVQLVESGGGLVQAAGSLRLSCAASGRTFVFYAMGWYRQAPGKERELVAAISDGDRTNYADSVKGRFTISRDNAKNTVYLQMNSLKPEDTAVYYCAADREFWWAVVYTYEYYYWGQGTQVTVSS", "polyreactivity (PSR sort gate)": "low polyreactivity"},
      {"sequence": "QVQLVESGGGLVQAAGSLRLSCAASGSIAMGWYRQAPGKERELVATISSSGGSTYYADSVKGRFTISRDNAKNTVYLQMNSLKPEDTAVYYCAAGGYTLYHAWGYYWGQGTQVTVSS", "polyreactivity (PSR sort gate)": "low polyreactivity"},
      {"sequence": "QVQLVESGGGLVQAAGSLRLSCAASGSTFAANAMGWYRQAPGKERELVAAITWTGGSTYYADSVKGRFTISRDNAKNTVYLQMNSLKPEDTAVYYCARRSYGRYYYRYRAYDYWGQGTQVTVSS", "polyreactivity (PSR sort gate)": "high polyreactivity"},
      {"sequence": "QVQLVESGGGLVQAAGSLRLSCAASVNTFFKNAMGWYRQAPGKERELVAAISKGGGSTYYADSVKGRFTISRDNAKNTVYLQMNSLKPEDTAVYYCAADTFGVYASTYDYWGQGTQVTVSS", "polyreactivity (PSR sort gate)": "high polyreactivity"},
      {"sequence": "QVQLVESGGGLVQAAGSRRLSCDASGRIFGWYAMGWSRQAPGKERELVAAITNSGGSPYCADSVKGRFTISRDNAKNTVYLERKSLIPEDTAVYYCARSFSFYGKRKYDYWGQGTQVTVSS", "polyreactivity (PSR sort gate)": "high polyreactivity"},
      {"sequence": "QVQLVESGGGLVQAEGSLRLSCAASGRTFRPYALGWYRQAPGKERELVAVITSGGRTDYADSVKGRFTISRDNAKNTVYLQMNSLKPEDTAVYYCNAGAVYWGYSRGWYERDYWGQGTQVTVSS", "polyreactivity (PSR sort gate)": "high polyreactivity"},
      {"sequence": "QVQLVESGGGLVQAGASLRLCCAASGRILRRYAMGWYRQAPGKEWELVAAITARTGSTYYADSVKGRFTISRDTAKYTVYLQMNSLKPEDTAVYYCNAVNELTGGVIFNYWGQGTQVTVSS", "polyreactivity (PSR sort gate)": "high polyreactivity"},
      {"sequence": "QVQLVESGGGLVQAGASLRLSCAASGCTFVVNAMGWYRQAPGKERELVAAITDGSSTNYADSVKGRFTISRDNAKYTVYLQMTRLIRQDTAVYFCAAVPYIDLDDINVEHPQYGYWGQGTQVTVSS", "polyreactivity (PSR sort gate)": "low polyreactivity"},
      {"sequence": "QVQLVESGGGLVQAGASLRLSCAASGFIFRHYAMGWYRQAPGKARELVAVINWSGSSTYYADSVKGRFTISRDNAKNTVYLQMNSLKPEDTAVYYCAVRSLRVDKYGYWGQGTQVTVSS", "polyreactivity (PSR sort gate)": "high polyreactivity"},
      {"sequence": "QVQLVESGGGLVQAGASLRLSCAASGFTFGTYAMGWYRQAPGKERELVAAITKSGVRTYYADSVKGRFTISRDNAKNTVYLQMNSLKPEDTAVYYCNARGHSSLSTIVDFWGQGTQVTVSS", "polyreactivity (PSR sort gate)": "high polyreactivity"},
      {"sequence": "QVQLVESGGGLVQAGASLRLSCAASGFTLYSYAMGWYRQAPGKERELDASISTGGSTYYADSVKGRFTISRDNAKNTVYLQMNSLKPVDTAVYYSAVDGWYYTSWSFYRRYEYWGQGTQVSVSS", "polyreactivity (PSR sort gate)": "high polyreactivity"},
      {"sequence": "QVQLVESGGGLVQAGASLRLSCAASGGIFVVYGMGWYRQAPGNERELVAAISWRGGSTYYADSVKGRFTISRDNAKNTVYLQMNSLKPEDTAVYYCAADQYYGGYDYWGQGTQVTVSS", "polyreactivity (PSR sort gate)": "low polyreactivity"},
      {"sequence": "QVQLVESGGGLVQAGASLRLSCAASGIIYAYNAMGWYRPAPGKERELVATITDSGGSTSYADSVKGRFTISRDNAKNTVYLQMNSLKPEDTAVYYCAVLPVYWYWRNYVYLSGYDYWGQGTQVTVSS", "polyreactivity (PSR sort gate)": "low polyreactivity"},
      {"sequence": "QVQLVESGGGLVQAGASLRLSCAASGLIFYFYAMGWYRQAPGKERELVATIRSSTGSTYYADSVKGRFTISRDNAKNTVYLQMNSLKPEDTAVYYCNAGIKRYEWYQFDYWGQGTQVSVSS", "polyreactivity (PSR sort gate)": "low polyreactivity"},
      {"sequence": "QVQLVESGGGLVQAGASLRLSCAASGRIFWHNAMGWYRQAPGKERELVAAMTRGGSTYYADSVKGRFTISRDNAKNTVYLQMNSLKPEDTAVYYCATLGSLRYYWPGYDYWGQGTQVTVSS", "polyreactivity (PSR sort gate)": "low polyreactivity"},
      {"sequence": "QVQLVESGGGLVQAGASLRLSCAASGRILKTYAMGSYRQAPGKERELVAAITGRGGRTYYADSVKGRFTISRDNAKNTFYLQMISLKPEDTAVYYCAAYYGPSRSLYYYWGQGSQVTVSS", "polyreactivity (PSR sort gate)": "high polyreactivity"},
      {"sequence": "QVQLVESGGGLVQAGASLRLSCAASGRTFLRYAMGWYRQAPGKERELVAAISSRGGSTYYADSVKGRFTISRDNAKNTVYLQMNSLIPEDTAVYYCAARGCRSQVPVRVFRYDFWGQGTQVTVSS", "polyreactivity (PSR sort gate)": "high polyreactivity"}
    ]}
  ]
}
